Assay results published in the Human Domainome abundance scans (Beltran et al. 2025).
± gives the uncertainty stated by the source.

B1: Protein C-ets-1, residues 55 to 135; numbered along this chain, P14921 (parent)
chain: GFTKEQQRLGIPKDPRQWTETHVRDWVMWAVNEFSLKGVDFQKFCMNGAALCALGKDCFLELAPDFVGDILWEHLEILQKE

Variants of: B1
Test: abundance fitness (aPCA) (normalised: wild type 0, dead -1); higher = more abundant; growth selection in yeast, the domain comes from the species named
Settings: Homo sapiens

Variant	abundance fitness
GFTKEQQRLGIPKDPRQWTETHVRDWVMWAVNEFSLKGVDFQKFCMNGAALCALGYDCFLELAPDFVGDILWEHLEILQKE [K56Y]	-0.134 ± 0.065
GFTKEQQRLGIPKDPRQWTETHVRDWVMWAVNEFSLKGVDFQKFCMNGAALCALGKDCFNELAPDFVGDILWEHLEILQKE [L60N]	-0.117 ± 0.093
GFTKEQQRLGIPKDPRQWTETHVRDWVMWAVNEFSLKGVDFQKFCMNGAALCALGKDCFEELAPDFVGDILWEHLEILQKE [L60E]	-0.113 ± 0.061
GFTKEQQRLGIPKDPRQWTETHVRDWVMWAVNEFSLKGVDFQKFCMNGAALCALGKDCFCELAPDFVGDILWEHLEILQKE [L60C]	-0.091 ± 0.068
GFTKEQQRLGIPKDPRQWTETHVRDWVMWAVNEFSLKGVDFQKFCMNGAALCALGKDCFDELAPDFVGDILWEHLEILQKE [L60D]	-0.23 ± 0.06
GFTKEQQRLGIPKDPRQWTETHVRDWVMWAVNEFSLKGVDFQKFCMNGAALCALGKDCFMELAPDFVGDILWEHLEILQKE [L60M]	-0.067 ± 0.059
GFTKEQQRLGIPKDPRQWTETHVRDWVMWAVNEFSLKGVDFQKFCMNGAALCALGKDCFFELAPDFVGDILWEHLEILQKE [L60F]	-0.087 ± 0.066
GFTKEQQRLGIPKDPRQWTETHVRDWVMWAVNEFSLKGVDFQKFCMNGAALCALGKDCFGELAPDFVGDILWEHLEILQKE [L60G]	-0.1 ± 0.029
GFTKEQQRLGIPKDPRQWTETHVRDWVMWAVNEFSLKGVDFQKFCMNGAALCALGKDCFPELAPDFVGDILWEHLEILQKE [L60P]	-0.628 ± 0.063
GFTKEQQRLGIPKDPRQWTETHVRDWVMWAVNEFSLKGVDFQKFCMNGAALCALGKDCFHELAPDFVGDILWEHLEILQKE [L60H]	-0.052 ± 0.069
GFTKEQQRLGIPKDPRQWTETHVRDWVMWAVNEFSLKGVDFQKFCMNGAALCALGKDCFAELAPDFVGDILWEHLEILQKE [L60A]	-0.009 ± 0.034
GFTKEQQRLGIPKDPRQWTETHVRDWVMWAVNEFSLKGVDFQKFCMNGAALCALGKDCFKELAPDFVGDILWEHLEILQKE [L60K]	0.043 ± 0.077
GFTKEQQRLGIPKDPRQWTETHVRDWVMWAVNEFSLKGVDFQKFCMNGAALCALGKLCFLELAPDFVGDILWEHLEILQKE [D57L]	-0.216 ± 0.033
GFTKEQQRLGIPKDPRQWTETHVRDWVMWAVNEFSLKGVDFQKFCMNGAALCALGKPCFLELAPDFVGDILWEHLEILQKE [D57P]	-0.109 ± 0.033
GFTKEQQRLGIPKDPRQWTETHVRDWVMWAVNEFSLKGVDFQKFCMNGAALCALGKICFLELAPDFVGDILWEHLEILQKE [D57I]	-0.185 ± 0.09
GFTKEQQRLGIPKDPRQWTETHVRDWVMWAVNEFSLKGVDFQKFCMNGAALCALGKTCFLELAPDFVGDILWEHLEILQKE [D57T]	-0.058 ± 0.039
GFTKEQQRLGIPKDPRQWTETHVRDWVMWAVNEFSLKGVDFQKFCMNGAALCALGKKCFLELAPDFVGDILWEHLEILQKE [D57K]	0.017 ± 0.066

Variant	abundance fitness
GFTKEQQRLGIPKDPRQWTETHVRDWVMWAVNEFSLKGVDFQKFCMNGAALCALGKWCFLELAPDFVGDILWEHLEILQKE [D57W]	-0.464 ± 0.06
GFTKEQQRLGIPKDPRQWTETHVRDWVMWAVNEFSLKGVDFQKFCMNGAALCALGKQCFLELAPDFVGDILWEHLEILQKE [D57Q]	-0.073 ± 0.045
GFTKEQQRLGIPKDPRQWTETHVRDWVMWAVNEFSLKGVDFQKFCMNGAALCALGKGCFLELAPDFVGDILWEHLEILQKE [D57G]	-0.083 ± 0.028
GFTKEQQRLGIPKDPRQWTETHVRDWVMWAVNEFSLKGVDFQKFCMNGAALCALGKVCFLELAPDFVGDILWEHLEILQKE [D57V]	-0.097 ± 0.03
GFTKEQQRLGIPKDPRQWTETHVRDWVMWAVNEFSLKGVDFQKFCMNGAALCALGKHCFLELAPDFVGDILWEHLEILQKE [D57H]	-0.049 ± 0.058
GFTKEQQRLGIPKDPRQWTETHVRDWVMWAVNEFSLKGVDFQKFCMNGAALCALGKRCFLELAPDFVGDILWEHLEILQKE [D57R]	-0.063 ± 0.034
GFTKEQQRLGIPKDPRQWTETHVRDWVMWAVNEFSLKGVDFQKFCMNGAALCALGKSCFLELAPDFVGDILWEHLEILQKE [D57S]	-0.027 ± 0.03
GFTKEQQRLGIPKDPRQWTETHVRDWVMWAVNEFSLKGVDFQKFCMNGAALCALGKFCFLELAPDFVGDILWEHLEILQKE [D57F]	-0.303 ± 0.065
GFTKEQQRLGIPKDPRQWTETHVRDWVMWAVNEFSLKGVDFQKFCMNGAALCALGKACFLELAPDFVGDILWEHLEILQKE [D57A]	-0.049 ± 0.029
GFTKEQQRLGIPKDPRQWTETHVRDWVMWAVNEFSLKGVDFQKFCMNGAALCALGKECFLELAPDFVGDILWEHLEILQKE [D57E]	0.001 ± 0.045
GFTKEQQRLGIPKDPRQWTETHVRDWVMWAVNEFSLKGVDFQKFCMNGAALCALGKNCFLELAPDFVGDILWEHLEILQKE [D57N]	-0.02 ± 0.063
GFTKEQQRLGIPKDPRQWTETHVRDWVMWAVNEFSLKGVDFQKFCMNGAALCALGKYCFLELAPDFVGDILWEHLEILQKE [D57Y]	-0.326 ± 0.1
GFTKEQQRLGIPKDPRQWTETHVRDWVMWAVNEFSLKGVDFQKFCMNGAALCALGKCCFLELAPDFVGDILWEHLEILQKE [D57C]	-0.106 ± 0.065
GFTKEQQRLGIPKDPRQWTETHVRDWVMWAVNEFSLKGVDFQKFCMNGAALCALGKMCFLELAPDFVGDILWEHLEILQKE [D57M]	-0.158 ± 0.05
GFTKEQQRLGIPKDPRQWTETHVRDWVMWAVNEFSLKGVDFQKFCMNGAALCALGKDCALELAPDFVGDILWEHLEILQKE [F59A]	-0.928 ± 0.054
GFTKEQQRLGIPKDPRQWTETHVRDWVMWAVNEFSLKGVDFQKFCMNGAALCALGKDCVLELAPDFVGDILWEHLEILQKE [F59V]	-0.467 ± 0.031
GFTKEQQRLGIPKDPRQWTETHVRDWVMWAVNEFSLKGVDFQKFCMNGAALCALGKDCRLELAPDFVGDILWEHLEILQKE [F59R]	-0.496 ± 0.038
